Data published in article PMC6764022 (ACS Nano, 2019).
Where no end group is shown, it is not given here. [ ]: non-standard residue; d: D form. Lys(N3) = [N-]=[N+]=NCCCC[C@H](N)C(=O)O

T1: B2: DNA origami B decorated with two β-CC-Di-KE (azidonorleucine (Z) at the N-terminus, joined to oligonucleotide tag β, which is hybridised to a handle of DNA origami B)
T1 chain: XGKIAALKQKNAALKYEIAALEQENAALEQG

T2: B3: DNA origami B decorated with three β-CC-Di-KE (azidonorleucine (Z) at the N-terminus, joined to oligonucleotide tag β, which is hybridised to a handle of DNA origami B)
T2 chain: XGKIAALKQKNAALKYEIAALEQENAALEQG

B1: A2: DNA origami A decorated with two CC-Di-EK-α (other)
chain: GEIAALEQENAALEQKIAALKWKNAALKQG[Lys(N3)]-NH2
modifications: not fully specified; also: tag α hybridised to handle of DNA origami A, two copies per origami

Experiments:
Assay in all cases: counting of free and bound DNA origami nanostructures in electron micrographs (TEM); peptides displayed on DNA origamis A and B through oligonucleotide tags; gel-purified An and Bn mixed, total monomer concentrations 0.25-2.4 nM; background of random coincidences subtracted; Kd from the slope of a linear fit through the origin; additional systematic error of approximately 20%
[1] = biological target: T1, B2: DNA origami B decorated with two …; details: both partners purified
[2] = biological target: the molecule itself
[3] = biological target: T2, B3: DNA origami B decorated with three …; details: both partners purified

Row | Binder | Kd [1] | Kd [2] | Kd [3]
1 | B1 | 25 ± 3 nM |  | 
2 | GEIAALEQENAALEQKIAALKWKNAALKQG[Lys(N3)]-NH2 (other, also: tag α hybridised to handle of DNA origami A, three copies per origami) [A3: DNA origami A decorated with three CC-Di-EK-α] |  | 24 ± 4 nM | 0.7 ± 0.1 nM
